Measurements: patent US20220332804A1 (CSL INNOVATION, published 2022)

Key:
Experiment in all cases: SPR, antibody captured, C2 as analyte;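 further: biacore at 37 °C, anti-C2 mAbs held by immobilised goat anti-human IgG, C2 alanine or serine mutants injected, double-referenced sensorgrams fitted to a 1:1 kinetic or steady-state model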
human C2 N327A = biological target: T1, human C2 N327A (human, UniProt P06681 21-752)
T1 sequence: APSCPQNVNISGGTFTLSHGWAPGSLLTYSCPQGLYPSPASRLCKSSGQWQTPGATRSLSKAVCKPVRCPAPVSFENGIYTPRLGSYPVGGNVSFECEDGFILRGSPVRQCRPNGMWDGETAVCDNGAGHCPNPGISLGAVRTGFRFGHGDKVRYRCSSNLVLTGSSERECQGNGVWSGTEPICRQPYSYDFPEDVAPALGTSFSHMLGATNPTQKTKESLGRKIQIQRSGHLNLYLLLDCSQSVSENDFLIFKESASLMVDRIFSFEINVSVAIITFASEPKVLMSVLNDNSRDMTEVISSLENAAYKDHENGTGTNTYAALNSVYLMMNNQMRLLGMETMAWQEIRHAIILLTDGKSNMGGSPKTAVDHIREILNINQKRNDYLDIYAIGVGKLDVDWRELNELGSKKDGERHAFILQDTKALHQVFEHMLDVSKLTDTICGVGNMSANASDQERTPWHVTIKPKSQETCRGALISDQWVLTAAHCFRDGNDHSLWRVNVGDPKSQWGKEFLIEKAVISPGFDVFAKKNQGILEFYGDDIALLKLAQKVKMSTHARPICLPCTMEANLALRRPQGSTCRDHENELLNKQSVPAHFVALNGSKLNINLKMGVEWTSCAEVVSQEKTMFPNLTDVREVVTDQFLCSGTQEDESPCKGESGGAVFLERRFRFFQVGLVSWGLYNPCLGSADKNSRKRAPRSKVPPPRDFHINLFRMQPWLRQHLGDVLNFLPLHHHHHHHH
Method: (§1) Surface plasmon resonance (SPR, Biacore) was used for all binding affinity analyses. In brief, goat anti-human IgG was directly immobilised onto the carboxymethyl dextran surface of CM5 sensorchips to approximately 12,000 RU using standard NHS/EDC chemistry at pH 5. The immobilised antibody surface was pre-conditioned with ten injections of polyclonal human IgG (Privigen 60 s) prepared at 1 μg/mL. Ligands (anti-C2 mAbs) were captured at the beginning of each cycle as described below. An adjacent spot or flow cell in which only Polyclonal IgG was capture was used as a reference surface. The goat anti-human IgG Fc antibody surface was regenerate in 100 mM H3PO4, injected for 45 seconds at the end of each cycle. Experiments were performed at 37° C. and the flow rate of each experiment was kept constant at 30 μL/min.
(§2) Sensogram data was double-referenced against a reference anti-IgG surface (i.e. minus anti-C2 mAb) and blank buffer injections obtained within each experiment. The binding data was fit to 1:1 (kinetic or steady-state) model using local Rmax and null refraction index (RI=0) when appropriate. Buffers and solutions were filtered (0.22 μm) prior to use.

human C2 W420A = biological target: T2, human C2 W420A (human, UniProt P06681 21-752)
T2 sequence: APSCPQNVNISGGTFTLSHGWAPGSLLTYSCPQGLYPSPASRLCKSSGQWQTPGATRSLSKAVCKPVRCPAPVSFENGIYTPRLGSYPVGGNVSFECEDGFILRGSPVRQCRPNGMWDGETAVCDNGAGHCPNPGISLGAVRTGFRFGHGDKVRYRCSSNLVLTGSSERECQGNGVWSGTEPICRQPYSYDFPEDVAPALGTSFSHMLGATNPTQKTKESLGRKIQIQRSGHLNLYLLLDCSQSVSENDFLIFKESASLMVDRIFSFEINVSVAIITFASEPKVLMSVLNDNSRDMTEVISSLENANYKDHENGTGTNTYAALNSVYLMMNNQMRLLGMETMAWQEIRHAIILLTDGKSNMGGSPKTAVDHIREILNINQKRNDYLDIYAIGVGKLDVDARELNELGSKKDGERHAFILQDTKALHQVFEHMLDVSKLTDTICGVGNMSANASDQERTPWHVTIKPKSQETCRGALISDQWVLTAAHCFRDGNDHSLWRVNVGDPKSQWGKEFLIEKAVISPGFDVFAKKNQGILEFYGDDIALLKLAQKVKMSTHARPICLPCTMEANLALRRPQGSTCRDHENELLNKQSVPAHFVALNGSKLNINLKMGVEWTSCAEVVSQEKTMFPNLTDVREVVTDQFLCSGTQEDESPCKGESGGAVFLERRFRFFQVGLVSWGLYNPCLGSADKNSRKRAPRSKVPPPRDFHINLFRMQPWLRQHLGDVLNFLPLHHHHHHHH
Method: as §1, §2

human C2 K244A = biological target: T3, human C2 K244A (human, UniProt P06681 21-752)
T3 sequence: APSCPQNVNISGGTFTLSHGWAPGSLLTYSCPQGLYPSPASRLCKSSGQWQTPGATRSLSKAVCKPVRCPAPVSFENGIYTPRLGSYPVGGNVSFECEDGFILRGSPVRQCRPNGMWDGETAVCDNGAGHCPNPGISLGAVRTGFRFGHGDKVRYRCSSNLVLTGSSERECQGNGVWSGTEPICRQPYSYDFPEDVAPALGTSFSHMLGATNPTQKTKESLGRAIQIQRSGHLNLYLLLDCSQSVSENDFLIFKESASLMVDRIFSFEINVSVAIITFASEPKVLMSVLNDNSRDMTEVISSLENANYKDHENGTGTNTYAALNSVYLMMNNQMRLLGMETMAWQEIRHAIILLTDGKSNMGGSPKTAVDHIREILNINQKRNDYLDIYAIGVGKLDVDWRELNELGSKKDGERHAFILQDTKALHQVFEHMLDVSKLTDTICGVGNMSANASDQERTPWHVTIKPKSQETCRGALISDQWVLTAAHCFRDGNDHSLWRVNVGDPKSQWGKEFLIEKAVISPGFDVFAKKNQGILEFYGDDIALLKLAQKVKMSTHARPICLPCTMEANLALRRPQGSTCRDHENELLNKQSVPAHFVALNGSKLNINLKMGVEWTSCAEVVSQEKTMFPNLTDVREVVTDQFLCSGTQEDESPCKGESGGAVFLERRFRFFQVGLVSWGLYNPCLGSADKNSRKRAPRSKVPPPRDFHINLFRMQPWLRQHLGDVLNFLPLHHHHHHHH
Method: as §1, §2

human C2 I438A = biological target: T4, human C2 I438A (human, UniProt P06681 21-752)
T4 sequence: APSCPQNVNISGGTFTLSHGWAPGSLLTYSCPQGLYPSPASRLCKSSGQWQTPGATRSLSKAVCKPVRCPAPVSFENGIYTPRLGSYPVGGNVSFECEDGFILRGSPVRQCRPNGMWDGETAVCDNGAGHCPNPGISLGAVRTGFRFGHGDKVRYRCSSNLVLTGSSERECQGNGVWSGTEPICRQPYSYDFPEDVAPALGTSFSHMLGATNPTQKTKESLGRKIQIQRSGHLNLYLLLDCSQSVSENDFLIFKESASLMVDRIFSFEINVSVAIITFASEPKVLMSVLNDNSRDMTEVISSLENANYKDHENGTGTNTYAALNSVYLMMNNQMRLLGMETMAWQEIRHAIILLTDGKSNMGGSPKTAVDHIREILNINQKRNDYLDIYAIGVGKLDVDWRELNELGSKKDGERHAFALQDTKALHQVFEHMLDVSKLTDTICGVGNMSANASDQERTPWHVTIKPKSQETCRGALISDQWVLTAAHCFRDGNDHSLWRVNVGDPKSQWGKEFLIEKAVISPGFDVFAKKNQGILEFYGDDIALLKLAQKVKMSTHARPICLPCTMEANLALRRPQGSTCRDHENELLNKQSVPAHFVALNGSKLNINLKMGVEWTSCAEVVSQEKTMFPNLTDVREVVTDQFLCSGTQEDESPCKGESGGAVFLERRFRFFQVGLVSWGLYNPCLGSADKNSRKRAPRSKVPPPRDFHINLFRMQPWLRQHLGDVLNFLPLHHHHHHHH
Method: as §1, §2

B1: RF16-242 (antibody, human IgG4 S228P, lambda, V domains shown)
VH: EVQLLQSGAEVKKPGESLKISCKGSGYSFTSYWIGWVRQMPGKGLEWMGIIYPGDSDTRYSPSFQGQVTISADKSISTAYLQWSSLKASDTAMYYCARRGHYGDYFDYWGQGTLVTVSS
VL: SYELTQPPSVSVSPGQTARITCSGDALPKKYAYWYHQKSGQAPVLVIYEDRRRPSEIPERFSGSSSGTMATLTITGAQVEDEGVYFCYSRDRAGNQRVFGGGTQLTVLG
notes: pH-dependent anti-C2 antibody from a phage display library
Kd (human C2 N327A): 37.5 nM | Kd (human C2 W420A): 13.2 nM | Kd (human C2 K244A): 26.2 nM | Kd (human C2 I438A): 8.7 nM
